Data reported in article PMC11972402 (Nature Communications, 2025).

Molecular target: T1, Saccharomyces cerevisiae Rat1-Rai1 complex (Saccharomyces cerevisiae, UniProt Q02792 1-981; P53063 1-387)
T1 sequence (looked up) 1: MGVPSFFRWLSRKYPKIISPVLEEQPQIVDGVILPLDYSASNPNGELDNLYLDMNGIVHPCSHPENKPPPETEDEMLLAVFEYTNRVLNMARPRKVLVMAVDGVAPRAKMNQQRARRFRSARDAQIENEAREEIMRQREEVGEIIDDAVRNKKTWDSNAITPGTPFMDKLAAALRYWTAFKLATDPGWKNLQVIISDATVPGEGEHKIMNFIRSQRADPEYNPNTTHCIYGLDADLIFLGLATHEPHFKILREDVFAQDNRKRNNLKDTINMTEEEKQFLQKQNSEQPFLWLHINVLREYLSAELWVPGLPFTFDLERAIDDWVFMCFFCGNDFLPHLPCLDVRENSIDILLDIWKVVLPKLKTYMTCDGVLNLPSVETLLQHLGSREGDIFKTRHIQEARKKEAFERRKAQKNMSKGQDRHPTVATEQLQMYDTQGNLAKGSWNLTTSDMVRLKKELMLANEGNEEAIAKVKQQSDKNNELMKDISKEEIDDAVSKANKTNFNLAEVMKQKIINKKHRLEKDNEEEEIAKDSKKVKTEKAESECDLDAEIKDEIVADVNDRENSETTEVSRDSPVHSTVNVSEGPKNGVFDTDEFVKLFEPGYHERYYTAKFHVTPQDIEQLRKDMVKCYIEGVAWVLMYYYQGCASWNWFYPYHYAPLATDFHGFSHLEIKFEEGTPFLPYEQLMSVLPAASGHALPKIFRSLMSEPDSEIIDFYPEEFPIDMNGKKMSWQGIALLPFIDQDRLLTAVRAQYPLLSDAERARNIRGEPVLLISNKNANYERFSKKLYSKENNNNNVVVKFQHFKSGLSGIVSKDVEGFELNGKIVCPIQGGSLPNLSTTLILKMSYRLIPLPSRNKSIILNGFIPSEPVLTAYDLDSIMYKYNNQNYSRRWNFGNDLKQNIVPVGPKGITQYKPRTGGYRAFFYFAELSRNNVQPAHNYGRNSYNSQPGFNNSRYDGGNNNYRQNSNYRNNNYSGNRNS
T1 sequence (looked up) 2: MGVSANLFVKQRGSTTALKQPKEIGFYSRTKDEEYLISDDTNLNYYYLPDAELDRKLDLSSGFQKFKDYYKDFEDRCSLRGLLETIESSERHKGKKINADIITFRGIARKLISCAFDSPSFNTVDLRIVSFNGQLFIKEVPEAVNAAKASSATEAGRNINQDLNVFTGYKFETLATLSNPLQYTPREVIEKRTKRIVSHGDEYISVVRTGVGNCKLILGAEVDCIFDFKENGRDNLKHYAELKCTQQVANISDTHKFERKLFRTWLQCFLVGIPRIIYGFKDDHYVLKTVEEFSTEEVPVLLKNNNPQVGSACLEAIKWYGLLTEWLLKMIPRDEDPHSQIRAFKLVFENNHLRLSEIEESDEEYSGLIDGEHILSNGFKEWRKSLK
Assay: pull-down

B1: N-terminal 6×His-MBP tagged S. cerevisiae Rtt103 RIS (243-272) wild-type (domain or fragment, Saccharomyces cerevisiae, UniProt Q05543 243-272, looked up)
chain: SAKDPSRLNKNVDEDNIIPTYEVGDGDDDD
- binding result: binds
